Series [1] deals with T1, Dda 1993 K358E K358E (Enterobacteria phage T4) (UniProt P32270).
T1 sequence: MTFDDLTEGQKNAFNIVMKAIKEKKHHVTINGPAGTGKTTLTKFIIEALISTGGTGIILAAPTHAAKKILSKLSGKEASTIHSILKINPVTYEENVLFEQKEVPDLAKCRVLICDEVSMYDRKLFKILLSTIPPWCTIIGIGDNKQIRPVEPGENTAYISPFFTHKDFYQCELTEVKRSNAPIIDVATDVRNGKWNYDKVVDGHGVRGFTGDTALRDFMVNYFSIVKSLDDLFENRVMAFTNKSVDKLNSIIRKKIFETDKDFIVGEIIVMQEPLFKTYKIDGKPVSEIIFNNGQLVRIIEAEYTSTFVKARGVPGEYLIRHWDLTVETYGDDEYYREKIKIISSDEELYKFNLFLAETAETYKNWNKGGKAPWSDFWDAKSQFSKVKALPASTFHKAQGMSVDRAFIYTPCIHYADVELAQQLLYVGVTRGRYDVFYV
Conditions: nanopore translocation, FLO-MIN106; background mutations not given.

Series [2] deals with T2, Dda 1993 K358I K358I (Enterobacteria phage T4) (UniProt P32270).
T2 sequence: T1 sequence with E358I
To be noted: nanopore translocation, FLO-MIN106; background mutations not given.

For series [3], the target named is T3, Dda 1993 C114T C114T (Enterobacteria phage T4) (UniProt P32270).
T3 sequence: T1 sequence with C114T, E358K
To be noted: nanopore translocation; background mutations not given.

For series [4], the target named is T4, Dda 1993 C114L C114L (Enterobacteria phage T4) (UniProt P32270).
T4 sequence: T1 sequence with C114L, E358K
Conditions: nanopore translocation; background mutations not given.

Series [5] has as its target T5, Dda 1993 C114S C114S (Enterobacteria phage T4) (UniProt P32270).
T5 sequence: T1 sequence with C114S, E358K
To be noted: nanopore translocation; background mutations not given.

The target of series [6] is T6, Dda 1993 C114A C114A (Enterobacteria phage T4) (UniProt P32270).
T6 sequence: T1 sequence with C114A, E358K
Conditions: nanopore translocation; background mutations not given.

Residue numbers refer to the chain shown, from its start.

As to “barcoded 3.6 kb DNA analyte ligated to sequencing Y adaptor”, the activity (bps speed delta vs control) in series [1] was -53.9; in series [2], -40.2; in series [3], -35.7; in series [4], -42; in series [5] it was -7.28; in series [6], 13.8.

For the origin of these results see US20250382602.
